Columns and labels:
Type in all cases: biochemical
EphA1 = molecular target: T1, EphA1 (Homo sapiens, UniProt P21709); assay: TR-FRET kinase assay, EphA1; settings: Kinase Concentration 0.5 nM; 50 nM ULight-labeled substrate, 200 micromolar ATP, 2 hours
T1 sequence (P21709 26-976): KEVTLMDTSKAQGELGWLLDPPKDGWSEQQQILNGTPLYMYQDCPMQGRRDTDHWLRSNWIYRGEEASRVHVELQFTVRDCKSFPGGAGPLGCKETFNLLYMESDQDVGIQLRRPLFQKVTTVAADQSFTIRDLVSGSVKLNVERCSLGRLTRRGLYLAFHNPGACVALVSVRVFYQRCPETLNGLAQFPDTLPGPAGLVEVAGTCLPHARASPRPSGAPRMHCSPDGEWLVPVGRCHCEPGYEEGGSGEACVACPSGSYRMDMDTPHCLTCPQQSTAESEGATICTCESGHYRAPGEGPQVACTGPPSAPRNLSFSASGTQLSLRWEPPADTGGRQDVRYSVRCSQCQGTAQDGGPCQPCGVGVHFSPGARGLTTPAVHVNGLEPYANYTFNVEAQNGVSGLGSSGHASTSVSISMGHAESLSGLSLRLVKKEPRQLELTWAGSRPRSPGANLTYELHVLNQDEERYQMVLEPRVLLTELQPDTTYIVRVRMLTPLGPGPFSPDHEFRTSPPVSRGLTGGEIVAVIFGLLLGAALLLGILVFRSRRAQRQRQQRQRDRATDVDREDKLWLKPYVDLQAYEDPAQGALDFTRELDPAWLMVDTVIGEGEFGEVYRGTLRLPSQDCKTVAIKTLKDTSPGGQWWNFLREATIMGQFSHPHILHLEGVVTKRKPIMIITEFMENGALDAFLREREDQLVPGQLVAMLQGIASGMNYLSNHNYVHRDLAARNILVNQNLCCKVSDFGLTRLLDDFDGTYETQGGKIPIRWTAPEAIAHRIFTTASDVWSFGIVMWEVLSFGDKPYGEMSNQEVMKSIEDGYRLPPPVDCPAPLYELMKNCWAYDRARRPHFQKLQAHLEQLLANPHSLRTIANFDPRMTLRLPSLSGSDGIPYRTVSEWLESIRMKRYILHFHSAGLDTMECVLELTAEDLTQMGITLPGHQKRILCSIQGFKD
Procedure: (§1) TR-FRET kinase assays are performed under standardized conditions: various individual kinases are incubated with 50 nM of kinase substrate BRB1 labeled with the TR-FRET acceptor dye ULight (PerkinElmer) and 200 micromolar ATP in 10 μL of kinase assay buffer (50 mM HEPES pH7.5, 10 mM MgCl2, 3 mM MnCl2, 1 mM EGTA, 2 mM DTT and 0.01% Tween-20) for 2 hours at room temperature. Reactions are stopped with EDTA, and anti-phospho-tyrosine antibodies (clone PT66) labeled with the TR-FRET europium chelate donor dye are added to a final concentration of 2 nM in a final volume of 20 μL. The TR-FRET signal emitted at 665 nm is read one hour after the addition of antibodies using a TR-FRET plate reader such as the Envision® Multilabel Plate reader (PerkinElmer). The emitted signal at 665 nm is proportional to the extent of peptide phosphorylation, Control reactions indicative of background are performed excluding ATP from the reaction.
(§2) Assay conditions are identical to those used described for FIG. 1.

JAK1 = JAK1 (Homo sapiens, UniProt P23458); assay: TR-FRET kinase assay, JAK1; settings: Kinase Concentration 7 nM; 50 nM ULight-labeled substrate, 200 micromolar ATP, 2 hours
Procedure: as §1, §2

ALK = ALK (Homo sapiens, UniProt Q9UM73); assay: TR-FRET kinase assay, ALK; settings: Kinase Concentration 4 nM; 50 nM ULight-labeled substrate, 200 micromolar ATP, 2 hours
Procedure: as §1, §2

KIT = KIT (Homo sapiens, UniProt P10721); assay: TR-FRET kinase assay, KIT; settings: Kinase Concentration 2 nM; 50 nM ULight-labeled substrate, 200 micromolar ATP, 2 hours
Procedure: as §1, §2

HCK = HCK (Homo sapiens, UniProt P08631); assay: TR-FRET kinase assay, HCK; settings: Kinase Concentration 0.25 nM; 50 nM ULight-labeled substrate, 200 micromolar ATP, 2 hours
Procedure: as §1, §2

EphA7 = EphA7 (Homo sapiens, UniProt Q15375); assay: TR-FRET kinase assay, EphA7; settings: Kinase Concentration 0.5 nM; 50 nM ULight-labeled substrate, 200 micromolar ATP, 2 hours
Procedure: as §1, §2

SRM = SRM (Homo sapiens, UniProt Q9H3Y6); assay: TR-FRET kinase assay, SRM; settings: Kinase Concentration 0.5 nM; 50 nM ULight-labeled substrate, 200 micromolar ATP, 2 hours
Procedure: as §1, §2

EphB1 = molecular target: T2, EphB1 (Homo sapiens, UniProt P54762); assay: TR-FRET kinase assay, EphB1; settings: Kinase Concentration 0.5 nM; 50 nM ULight-labeled substrate, 200 micromolar ATP, 2 hours
T2 sequence (P54762 18-984): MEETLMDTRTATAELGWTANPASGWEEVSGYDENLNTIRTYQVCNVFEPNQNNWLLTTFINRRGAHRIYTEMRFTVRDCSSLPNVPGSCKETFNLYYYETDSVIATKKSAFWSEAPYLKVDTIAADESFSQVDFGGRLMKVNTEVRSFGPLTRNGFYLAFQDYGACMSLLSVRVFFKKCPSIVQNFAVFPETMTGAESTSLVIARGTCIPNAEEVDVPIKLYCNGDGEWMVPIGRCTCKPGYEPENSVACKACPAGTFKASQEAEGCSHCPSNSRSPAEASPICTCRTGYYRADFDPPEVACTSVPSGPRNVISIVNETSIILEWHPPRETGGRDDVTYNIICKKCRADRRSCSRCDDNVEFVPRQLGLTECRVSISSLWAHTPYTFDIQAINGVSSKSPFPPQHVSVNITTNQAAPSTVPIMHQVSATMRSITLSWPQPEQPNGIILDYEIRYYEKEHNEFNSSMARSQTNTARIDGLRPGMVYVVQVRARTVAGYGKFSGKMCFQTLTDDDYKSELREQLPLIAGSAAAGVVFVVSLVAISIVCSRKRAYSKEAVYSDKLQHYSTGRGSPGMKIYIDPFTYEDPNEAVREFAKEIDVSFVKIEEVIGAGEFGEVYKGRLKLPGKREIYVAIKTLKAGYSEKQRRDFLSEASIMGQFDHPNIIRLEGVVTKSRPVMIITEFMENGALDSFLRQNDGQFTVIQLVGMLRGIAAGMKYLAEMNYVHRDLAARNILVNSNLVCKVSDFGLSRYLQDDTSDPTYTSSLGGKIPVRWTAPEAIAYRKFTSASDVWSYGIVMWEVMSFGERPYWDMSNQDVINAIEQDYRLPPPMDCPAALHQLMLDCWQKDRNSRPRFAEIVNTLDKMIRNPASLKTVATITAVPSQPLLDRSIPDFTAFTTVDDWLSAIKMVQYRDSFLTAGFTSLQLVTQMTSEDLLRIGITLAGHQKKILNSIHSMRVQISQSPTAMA
Procedure: as §1, §2

Sequence of HCK (P08631 whole entry, species assumed): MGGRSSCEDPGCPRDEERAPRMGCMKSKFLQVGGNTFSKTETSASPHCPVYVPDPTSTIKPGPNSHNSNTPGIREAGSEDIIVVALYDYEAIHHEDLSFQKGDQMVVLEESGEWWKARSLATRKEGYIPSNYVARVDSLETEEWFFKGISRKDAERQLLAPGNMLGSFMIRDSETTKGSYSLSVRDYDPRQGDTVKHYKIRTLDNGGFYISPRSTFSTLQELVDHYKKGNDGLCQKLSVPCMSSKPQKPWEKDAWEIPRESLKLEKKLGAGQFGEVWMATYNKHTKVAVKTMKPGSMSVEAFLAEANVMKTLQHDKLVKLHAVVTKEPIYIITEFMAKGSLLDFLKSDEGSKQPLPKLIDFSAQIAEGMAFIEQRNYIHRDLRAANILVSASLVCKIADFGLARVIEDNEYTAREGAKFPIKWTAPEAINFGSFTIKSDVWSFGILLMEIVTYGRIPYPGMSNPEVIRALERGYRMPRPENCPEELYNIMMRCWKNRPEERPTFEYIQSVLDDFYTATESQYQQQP
Sequence of EphA7 (Q15375 28-998, species assumed): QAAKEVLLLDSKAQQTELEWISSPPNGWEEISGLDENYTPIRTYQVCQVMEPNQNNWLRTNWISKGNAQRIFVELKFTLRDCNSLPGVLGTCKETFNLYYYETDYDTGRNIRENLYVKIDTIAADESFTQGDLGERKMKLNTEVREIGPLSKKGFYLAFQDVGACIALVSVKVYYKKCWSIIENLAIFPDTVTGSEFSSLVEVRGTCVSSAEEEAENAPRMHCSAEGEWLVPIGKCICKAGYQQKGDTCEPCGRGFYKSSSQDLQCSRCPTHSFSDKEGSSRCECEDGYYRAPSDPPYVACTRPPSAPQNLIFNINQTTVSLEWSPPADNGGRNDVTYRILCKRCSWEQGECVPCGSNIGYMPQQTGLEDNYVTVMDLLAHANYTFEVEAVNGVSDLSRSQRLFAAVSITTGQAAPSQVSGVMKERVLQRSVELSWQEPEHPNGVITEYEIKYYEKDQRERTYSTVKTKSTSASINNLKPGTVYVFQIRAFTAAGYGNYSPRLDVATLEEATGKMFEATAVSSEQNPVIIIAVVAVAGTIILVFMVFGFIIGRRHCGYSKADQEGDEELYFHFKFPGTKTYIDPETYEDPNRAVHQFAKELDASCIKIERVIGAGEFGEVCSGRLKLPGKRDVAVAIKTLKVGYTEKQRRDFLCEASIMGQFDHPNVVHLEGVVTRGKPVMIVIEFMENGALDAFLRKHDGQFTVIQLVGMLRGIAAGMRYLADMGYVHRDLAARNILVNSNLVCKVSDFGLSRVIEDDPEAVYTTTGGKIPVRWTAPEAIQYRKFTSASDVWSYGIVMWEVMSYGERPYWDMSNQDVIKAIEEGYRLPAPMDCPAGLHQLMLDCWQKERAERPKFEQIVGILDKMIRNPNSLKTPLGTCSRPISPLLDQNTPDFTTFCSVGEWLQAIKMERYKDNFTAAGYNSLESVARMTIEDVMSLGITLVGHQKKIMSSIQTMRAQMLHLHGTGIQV
Sequence of ALK (Q9UM73 19-1620, species assumed): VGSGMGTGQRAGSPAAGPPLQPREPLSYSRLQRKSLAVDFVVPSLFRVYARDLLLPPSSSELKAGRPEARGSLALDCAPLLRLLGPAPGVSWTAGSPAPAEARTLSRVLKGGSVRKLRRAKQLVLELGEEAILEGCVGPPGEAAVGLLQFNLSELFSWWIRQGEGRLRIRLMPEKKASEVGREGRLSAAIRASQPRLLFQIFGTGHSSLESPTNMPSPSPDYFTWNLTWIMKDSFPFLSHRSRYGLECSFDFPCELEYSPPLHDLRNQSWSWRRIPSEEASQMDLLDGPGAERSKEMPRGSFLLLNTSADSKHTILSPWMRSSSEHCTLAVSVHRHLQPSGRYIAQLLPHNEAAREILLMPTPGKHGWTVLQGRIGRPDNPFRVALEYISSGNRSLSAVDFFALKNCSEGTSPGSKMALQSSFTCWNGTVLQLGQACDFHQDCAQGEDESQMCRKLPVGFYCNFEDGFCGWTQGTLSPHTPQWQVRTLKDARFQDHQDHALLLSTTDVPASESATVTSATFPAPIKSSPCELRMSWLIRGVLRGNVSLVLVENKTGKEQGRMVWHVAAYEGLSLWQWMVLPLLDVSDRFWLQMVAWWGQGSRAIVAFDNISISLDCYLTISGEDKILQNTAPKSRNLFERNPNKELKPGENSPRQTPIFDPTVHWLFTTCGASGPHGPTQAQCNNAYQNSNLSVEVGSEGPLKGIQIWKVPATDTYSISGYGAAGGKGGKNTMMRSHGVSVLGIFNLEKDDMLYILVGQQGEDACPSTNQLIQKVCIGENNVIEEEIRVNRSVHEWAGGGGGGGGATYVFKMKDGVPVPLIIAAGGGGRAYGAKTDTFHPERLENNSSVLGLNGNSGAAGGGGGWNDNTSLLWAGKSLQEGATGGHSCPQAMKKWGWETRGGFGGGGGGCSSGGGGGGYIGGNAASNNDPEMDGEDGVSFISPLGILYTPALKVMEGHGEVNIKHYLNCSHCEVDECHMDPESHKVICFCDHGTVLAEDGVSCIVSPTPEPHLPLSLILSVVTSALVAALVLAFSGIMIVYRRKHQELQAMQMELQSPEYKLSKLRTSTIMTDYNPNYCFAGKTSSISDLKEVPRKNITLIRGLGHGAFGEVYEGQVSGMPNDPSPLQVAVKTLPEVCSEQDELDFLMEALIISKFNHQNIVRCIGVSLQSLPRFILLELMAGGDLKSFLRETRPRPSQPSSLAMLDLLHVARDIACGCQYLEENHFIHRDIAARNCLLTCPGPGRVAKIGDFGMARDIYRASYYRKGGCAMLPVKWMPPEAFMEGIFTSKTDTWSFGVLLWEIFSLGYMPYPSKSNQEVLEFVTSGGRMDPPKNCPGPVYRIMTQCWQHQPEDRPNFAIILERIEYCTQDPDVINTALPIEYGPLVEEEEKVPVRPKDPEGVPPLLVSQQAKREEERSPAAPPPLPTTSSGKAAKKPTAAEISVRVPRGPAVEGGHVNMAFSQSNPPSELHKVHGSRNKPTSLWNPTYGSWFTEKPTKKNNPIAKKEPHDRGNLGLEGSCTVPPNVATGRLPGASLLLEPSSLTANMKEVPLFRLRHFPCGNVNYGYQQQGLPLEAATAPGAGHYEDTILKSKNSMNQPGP
Sequence of SRM (Q9H3Y6 whole entry): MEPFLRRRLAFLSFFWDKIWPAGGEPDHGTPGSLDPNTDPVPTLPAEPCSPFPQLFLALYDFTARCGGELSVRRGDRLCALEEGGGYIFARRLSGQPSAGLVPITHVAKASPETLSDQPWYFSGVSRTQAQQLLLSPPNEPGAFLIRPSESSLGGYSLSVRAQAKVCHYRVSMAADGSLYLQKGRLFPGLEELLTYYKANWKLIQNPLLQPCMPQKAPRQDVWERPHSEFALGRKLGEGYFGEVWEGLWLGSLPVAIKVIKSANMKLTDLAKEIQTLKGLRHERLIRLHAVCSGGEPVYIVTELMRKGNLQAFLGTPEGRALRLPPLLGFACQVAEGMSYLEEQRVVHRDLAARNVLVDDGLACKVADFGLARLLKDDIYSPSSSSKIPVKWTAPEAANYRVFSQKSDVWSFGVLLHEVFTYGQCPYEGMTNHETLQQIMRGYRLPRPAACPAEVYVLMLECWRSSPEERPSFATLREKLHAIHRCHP
Sequence of JAK1 (P23458 whole entry, species assumed): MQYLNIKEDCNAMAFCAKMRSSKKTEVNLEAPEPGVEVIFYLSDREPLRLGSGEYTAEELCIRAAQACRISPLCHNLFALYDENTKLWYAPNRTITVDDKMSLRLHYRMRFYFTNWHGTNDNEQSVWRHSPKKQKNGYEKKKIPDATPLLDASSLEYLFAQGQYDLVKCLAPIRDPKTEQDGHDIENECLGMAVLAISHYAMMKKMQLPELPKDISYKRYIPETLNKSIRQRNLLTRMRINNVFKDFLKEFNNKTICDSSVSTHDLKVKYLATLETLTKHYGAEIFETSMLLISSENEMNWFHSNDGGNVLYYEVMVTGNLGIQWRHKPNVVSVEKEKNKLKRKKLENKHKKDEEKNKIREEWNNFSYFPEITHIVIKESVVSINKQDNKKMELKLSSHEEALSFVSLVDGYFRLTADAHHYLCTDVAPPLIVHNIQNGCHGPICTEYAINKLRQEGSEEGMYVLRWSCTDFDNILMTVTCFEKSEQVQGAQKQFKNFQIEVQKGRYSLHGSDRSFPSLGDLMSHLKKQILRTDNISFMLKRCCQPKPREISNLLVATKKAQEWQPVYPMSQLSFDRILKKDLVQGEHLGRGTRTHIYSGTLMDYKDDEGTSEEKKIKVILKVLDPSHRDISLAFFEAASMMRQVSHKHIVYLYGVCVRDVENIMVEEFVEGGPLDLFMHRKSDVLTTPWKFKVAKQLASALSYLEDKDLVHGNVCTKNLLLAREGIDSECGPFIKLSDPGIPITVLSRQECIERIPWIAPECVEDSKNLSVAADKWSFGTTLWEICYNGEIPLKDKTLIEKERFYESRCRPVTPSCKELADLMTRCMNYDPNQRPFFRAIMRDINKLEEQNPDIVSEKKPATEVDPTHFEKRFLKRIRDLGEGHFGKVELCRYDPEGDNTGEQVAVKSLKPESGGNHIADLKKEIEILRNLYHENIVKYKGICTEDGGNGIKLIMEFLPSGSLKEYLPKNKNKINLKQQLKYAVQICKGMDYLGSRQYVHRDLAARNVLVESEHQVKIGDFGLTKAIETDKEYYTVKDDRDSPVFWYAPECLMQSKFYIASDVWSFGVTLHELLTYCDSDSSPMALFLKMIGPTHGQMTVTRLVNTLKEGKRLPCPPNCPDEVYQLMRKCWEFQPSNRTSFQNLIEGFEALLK

With “C AYE AYE AYE K EYA EYA EYA K AYA EYE R (CAYEAYEAYEKEYAEYAEYAKAYAEYER; tyrosine kinase substrate peptide) [BRB1]” the “Signal to Noise ratio with BRB1 Peptide” value (EphA1) was 10.8, the “Signal to Noise ratio with BRB1 Peptide” value (JAK1) was 13.7 and the “Signal to Noise ratio with BRB1 Peptide” value (ALK) was 8.8. The “Signal to Noise ratio with BRB1 Peptide” value (KIT) was 1.5, the “Signal to Noise ratio with BRB1 Peptide” value (HCK) was 29.7 and the “Signal to Noise ratio with BRB1 Peptide” value (EphA7) was 17.2. The “Signal to Noise ratio with BRB1 Peptide” value (SRM) was 32.5 and the “Signal to Noise ratio with BRB1 Peptide” value (EphB1) was 29.9.
